We go through one substance from US5336615.

This assay has as its target human plasminogen (human) (UniProt P00747).

“bovine urokinase-type plasminogen activator (u-PA) (from UniProt Q05589) (enzyme)” had a u-PA activity (mPU/µg cell protein) of 4.9.
